T1: Pekin duck egg lysozyme isoform I (Anas platyrhynchos, Pekin duck, …, strain)
T1 construct: Allelic isoform I of C-type lysozyme of Pekin duck (Anas platyrhynchos), 129 positions; Asp66 and Asn103; First of three peaks eluted from CM resin; Observed intact mass 14391.88 Da; also called DEL-I; DL-1 (Kondo); source: purified from Pekin duck egg white (CM ion exchange, gel filtration)
T1 chain: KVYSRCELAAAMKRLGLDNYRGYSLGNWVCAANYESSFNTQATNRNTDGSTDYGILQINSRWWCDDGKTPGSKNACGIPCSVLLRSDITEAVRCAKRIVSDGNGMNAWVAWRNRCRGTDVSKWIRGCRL


Experiments:
Assay in all cases: BLI; BLItz (ForteBio); biotinylated Fab loaded on streptavidin biosensors (rehydrated in PBS with 0.1% BSA); lysozymes passed on and off at a range of concentrations; global fits of kinetics (BlitzPro 1.2.1.3)
[1] = biological target: HyHEL10 Fab
[2] = biological target: T1, Pekin duck egg lysozyme isoform I; conditions: both partners purified
[3] = biological target: T2, Pekin duck egg lysozyme isoform II (Anas platyrhynchos, Pekin duck, …, UniProt P00705, strain); conditions: both partners purified
T2 construct: Isoform II of C-type lysozyme of Pekin duck (Anas platyrhynchos), 129 positions; entry P00705 (Kondo DL-2) differs at residues 66 and 103; Second of three peaks eluted from CM resin; Observed intact mass 14460.98 Da; No crystal structure; also called DEL-II; DL-2 (Kondo); source: purified from Pekin duck egg white (CM ion exchange, gel filtration)

Molecule | Kd [1] [µM] | Kd [2] [µM] | Kd [3] [µM]
Pekin duck egg lysozyme isoform III (enzyme) | > 1 |  | 
HyHEL10 Fab (Fab, V domains shown, HyHEL10 Fab heavy chain; HyHEL10 kappa light chain; Cloned into pCEP4; also called HyHEL10 Fab arm; source: Expi293, transiently expressed, purified from supernatant (HisTrap FF Crude)) VH: DVQLQESGPSLVKPSQTLSLTCSVTGDSITSDYWSWIRKFPGNRLEYMGYVSYSGSTYYNPSLKSRISITRDTSKNQYYLDLNSVTTEDTATYYCANWDGDYWGQGTLVTVSA VL: DIVLTQSPATLSVTPGNSVSLSCRASQSIGNNLHWYQQKSHESPRLLIKYASQSISGIPSRFSGSGSGTDFTLSINSVETEDFGMYFCQQSNSWPYTFGGGTKLEIK |  | 0.04 | 0.034

— article PMC5683014 (Acta Crystallographica. Section D, Structural Biology, 2017)
